Data as given in US20140087995A1 (published 2014).
Numbered stars: 1 amine (or outer) side, 2 acyl side, 3 side chain; on linkers, the order of the positions; unused ones are H or OH. Bridge positions count the residues as written; N and C are the ends. Side chains are listed from the residue outwards. Ends that are not written are not given here. * marks the point of attachment. C20 diacid = O=C(O)CCCCCCCCCCCCCCCCCCC(=O)*; γGlu = O=C(O)[C@H](CCC(=O)[*:2])N[*:1]

T1: human amylin receptor (amylin 3(a) receptor: human calcitonin receptor co-expressed with RAMP-3) (human, UniProt P30988 25-474; O60896 24-148, limits assumed)
T1 sequence (looked up) 1: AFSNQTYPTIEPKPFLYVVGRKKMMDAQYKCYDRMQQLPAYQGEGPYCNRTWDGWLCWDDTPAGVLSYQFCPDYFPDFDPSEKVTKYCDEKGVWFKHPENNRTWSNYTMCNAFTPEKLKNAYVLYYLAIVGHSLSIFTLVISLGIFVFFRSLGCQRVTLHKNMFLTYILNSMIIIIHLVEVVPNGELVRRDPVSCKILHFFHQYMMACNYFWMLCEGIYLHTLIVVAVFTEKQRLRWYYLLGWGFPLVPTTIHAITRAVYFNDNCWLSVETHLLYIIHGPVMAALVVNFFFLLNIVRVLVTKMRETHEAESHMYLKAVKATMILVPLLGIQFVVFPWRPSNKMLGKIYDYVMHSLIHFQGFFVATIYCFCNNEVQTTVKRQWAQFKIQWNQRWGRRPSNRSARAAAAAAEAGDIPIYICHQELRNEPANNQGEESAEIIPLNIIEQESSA
T1 sequence (looked up) 2: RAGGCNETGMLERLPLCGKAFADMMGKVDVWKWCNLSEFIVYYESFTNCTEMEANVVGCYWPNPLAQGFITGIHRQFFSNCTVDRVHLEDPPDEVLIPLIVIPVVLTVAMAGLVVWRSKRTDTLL

T2: human calcitonin receptor (human, UniProt P30988 25-474)
T2 sequence (looked up): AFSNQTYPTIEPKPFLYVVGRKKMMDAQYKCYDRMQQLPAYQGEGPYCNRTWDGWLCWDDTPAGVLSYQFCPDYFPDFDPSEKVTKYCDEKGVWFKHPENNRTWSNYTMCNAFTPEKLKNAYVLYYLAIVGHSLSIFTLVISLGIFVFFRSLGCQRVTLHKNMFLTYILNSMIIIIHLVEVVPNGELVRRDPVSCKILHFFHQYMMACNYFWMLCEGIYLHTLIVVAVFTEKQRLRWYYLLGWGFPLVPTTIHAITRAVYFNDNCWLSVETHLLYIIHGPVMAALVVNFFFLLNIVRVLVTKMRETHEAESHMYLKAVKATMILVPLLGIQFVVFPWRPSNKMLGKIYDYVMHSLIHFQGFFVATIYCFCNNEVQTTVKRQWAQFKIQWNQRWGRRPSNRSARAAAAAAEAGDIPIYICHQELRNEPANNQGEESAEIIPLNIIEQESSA


Experiments:
[1] = biological target: T1, human amylin receptor (amylin 3(a) …); experiment: cell-based or functional assay
[2] = biological target: T2, human calcitonin receptor; experiment: cell-based or functional assay

Binder	Ratio hCT/hAmylin funct. [1]	hAmylin-R funct. EC50 [1]	hCTR funct. EC50 [2]
K([γGlu-C20 diacid])CNTATCATQRLANFLRHSSPNFGAIPSSTNVGRNTY-NH2 (disulfide 2-7; N-terminus assumed; SMILES CC[C@H](C)[C@H](NC(=O)[C@H](C)NC(=O)CNC(=O)[C@H](Cc1ccccc1)NC(=O)[C@H](CC(N)=O)NC(=O)[C@@H]1CCCN1C(=O)[C@H](CO)NC(=O)[C@H](CO)NC(=O)[C@H](Cc1c[nH]cn1)NC(=O)[C@H](CCCNC(=N)N)NC(=O)[C@H](CC(C)C)NC(=O)[C@H](Cc1ccccc1)NC(=O)[C@H](CC(N)=O)NC(=O)[C@H](C)NC(=O)[C@H](CC(C)C)NC(=O)[C@H](CCCNC(=N)N)NC(=O)[C@H](CCC(N)=O)NC(=O)[C@@H](NC(=O)[C@H](C)NC(=O)[C@@H]1CSSC[C@H](NC(=O)[C@@H](N)CCCCNC(=O)CC[C@H](NC(=O)CCCCCCCCCCCCCCCCCCC(=O)O)C(=O)O)C(=O)N[C@@H](CC(N)=O)C(=O)N[C@@H]([C@@H](C)O)C(=O)N[C@@H](C)C(=O)N[C@@H]([C@@H](C)O)C(=O)N1)[C@@H](C)O)C(=O)N1CCC[C@H]1C(=O)N[C@@H](CO)C(=O)N[C@@H](CO)C(=O)N[C@H](C(=O)N[C@@H](CC(N)=O)C(=O)N[C@H](C(=O)NCC(=O)N[C@@H](CCCNC(=N)N)C(=O)N[C@@H](CC(N)=O)C(=O)N[C@H](C(=O)N[C@@H](Cc1ccc(O)cc1)C(N)=O)[C@@H](C)O)C(C)C)[C@@H](C)O, also called compound 79) [N^ε1-[(4S)-4-carboxy-4-(19-carboxynonadecanoylamino)butanoyl]-[Arg17,Pro21,Pro27,Arg34]-h-amylin]	24.5	0.161 nM	3.94 nM
K([γGlu-C20 diacid])CNTATCATQRLANFLRHSSPNFGAIPSSTNVGHNTY-NH2 (disulfide 2-7; N-terminus assumed; SMILES CC[C@H](C)[C@H](NC(=O)[C@H](C)NC(=O)CNC(=O)[C@H](Cc1ccccc1)NC(=O)[C@H](CC(N)=O)NC(=O)[C@@H]1CCCN1C(=O)[C@H](CO)NC(=O)[C@H](CO)NC(=O)[C@H](Cc1c[nH]cn1)NC(=O)[C@H](CCCNC(=N)N)NC(=O)[C@H](CC(C)C)NC(=O)[C@H](Cc1ccccc1)NC(=O)[C@H](CC(N)=O)NC(=O)[C@H](C)NC(=O)[C@H](CC(C)C)NC(=O)[C@H](CCCNC(=N)N)NC(=O)[C@H](CCC(N)=O)NC(=O)[C@@H](NC(=O)[C@H](C)NC(=O)[C@@H]1CSSC[C@H](NC(=O)[C@@H](N)CCCCNC(=O)CC[C@H](NC(=O)CCCCCCCCCCCCCCCCCCC(=O)O)C(=O)O)C(=O)N[C@@H](CC(N)=O)C(=O)N[C@@H]([C@@H](C)O)C(=O)N[C@@H](C)C(=O)N[C@@H]([C@@H](C)O)C(=O)N1)[C@@H](C)O)C(=O)N1CCC[C@H]1C(=O)N[C@@H](CO)C(=O)N[C@@H](CO)C(=O)N[C@H](C(=O)N[C@@H](CC(N)=O)C(=O)N[C@H](C(=O)NCC(=O)N[C@@H](Cc1c[nH]cn1)C(=O)N[C@@H](CC(N)=O)C(=O)N[C@H](C(=O)N[C@@H](Cc1ccc(O)cc1)C(N)=O)[C@@H](C)O)C(C)C)[C@@H](C)O, also called compound 77) [N^ε1-[(4S)-4-carboxy-4-(19-carboxynonadecanoylamino)butanoyl]-[Arg17,Pro21,Pro27,His34]-h-amylin]	–	0.145 nM	5.4 nM
K([γGlu-C20 diacid])CNTATCATQRLANFLRHSSPNFGAIPSSTNVGSHTY-NH2 (disulfide 2-7; N-terminus assumed; SMILES CC[C@H](C)[C@H](NC(=O)[C@H](C)NC(=O)CNC(=O)[C@H](Cc1ccccc1)NC(=O)[C@H](CC(N)=O)NC(=O)[C@@H]1CCCN1C(=O)[C@H](CO)NC(=O)[C@H](CO)NC(=O)[C@H](Cc1c[nH]cn1)NC(=O)[C@H](CCCNC(=N)N)NC(=O)[C@H](CC(C)C)NC(=O)[C@H](Cc1ccccc1)NC(=O)[C@H](CC(N)=O)NC(=O)[C@H](C)NC(=O)[C@H](CC(C)C)NC(=O)[C@H](CCCNC(=N)N)NC(=O)[C@H](CCC(N)=O)NC(=O)[C@@H](NC(=O)[C@H](C)NC(=O)[C@@H]1CSSC[C@H](NC(=O)[C@@H](N)CCCCNC(=O)CC[C@H](NC(=O)CCCCCCCCCCCCCCCCCCC(=O)O)C(=O)O)C(=O)N[C@@H](CC(N)=O)C(=O)N[C@@H]([C@@H](C)O)C(=O)N[C@@H](C)C(=O)N[C@@H]([C@@H](C)O)C(=O)N1)[C@@H](C)O)C(=O)N1CCC[C@H]1C(=O)N[C@@H](CO)C(=O)N[C@@H](CO)C(=O)N[C@H](C(=O)N[C@@H](CC(N)=O)C(=O)N[C@H](C(=O)NCC(=O)N[C@@H](CO)C(=O)N[C@@H](Cc1c[nH]cn1)C(=O)N[C@H](C(=O)N[C@@H](Cc1ccc(O)cc1)C(N)=O)[C@@H](C)O)C(C)C)[C@@H](C)O, also called compound 60) [N^ε1-[(4S)-4-carboxy-4-(19-carboxynonadecanoylamino)butanoyl]-[Arg17,Pro21,Pro27,His35]-h-amylin]	–	0.351 nM	5.36 nM
K([γGlu-C20 diacid])CNTATCATQRLAHFLRHSSPNFGAIPSSTNVGRNTY-NH2 (disulfide 2-7; N-terminus assumed; SMILES CC[C@H](C)[C@H](NC(=O)[C@H](C)NC(=O)CNC(=O)[C@H](Cc1ccccc1)NC(=O)[C@H](CC(N)=O)NC(=O)[C@@H]1CCCN1C(=O)[C@H](CO)NC(=O)[C@H](CO)NC(=O)[C@H](Cc1c[nH]cn1)NC(=O)[C@H](CCCNC(=N)N)NC(=O)[C@H](CC(C)C)NC(=O)[C@H](Cc1ccccc1)NC(=O)[C@H](Cc1c[nH]cn1)NC(=O)[C@H](C)NC(=O)[C@H](CC(C)C)NC(=O)[C@H](CCCNC(=N)N)NC(=O)[C@H](CCC(N)=O)NC(=O)[C@@H](NC(=O)[C@H](C)NC(=O)[C@@H]1CSSC[C@H](NC(=O)[C@@H](N)CCCCNC(=O)CC[C@H](NC(=O)CCCCCCCCCCCCCCCCCCC(=O)O)C(=O)O)C(=O)N[C@@H](CC(N)=O)C(=O)N[C@@H]([C@@H](C)O)C(=O)N[C@@H](C)C(=O)N[C@@H]([C@@H](C)O)C(=O)N1)[C@@H](C)O)C(=O)N1CCC[C@H]1C(=O)N[C@@H](CO)C(=O)N[C@@H](CO)C(=O)N[C@H](C(=O)N[C@@H](CC(N)=O)C(=O)N[C@H](C(=O)NCC(=O)N[C@@H](CCCNC(=N)N)C(=O)N[C@@H](CC(N)=O)C(=O)N[C@H](C(=O)N[C@@H](Cc1ccc(O)cc1)C(N)=O)[C@@H](C)O)C(C)C)[C@@H](C)O, also called compound 85)	26.6	0.146 nM	3.88 nM

Now from value to binder:

Ratio hCT/hAmylin funct. [1]	hAmylin-R funct. EC50 [1]	hCTR funct. EC50 [2]	Binder
–	0.13 nM	1.73 nM	K([γGlu-C20 diacid])CNTATCATQRLAHFLRHSSPNFGAIPSSTNVGHNTY-NH2 (disulfide 2-7; N-terminus assumed; SMILES CC[C@H](C)[C@H](NC(=O)[C@H](C)NC(=O)CNC(=O)[C@H](Cc1ccccc1)NC(=O)[C@H](CC(N)=O)NC(=O)[C@@H]1CCCN1C(=O)[C@H](CO)NC(=O)[C@H](CO)NC(=O)[C@H](Cc1c[nH]cn1)NC(=O)[C@H](CCCNC(=N)N)NC(=O)[C@H](CC(C)C)NC(=O)[C@H](Cc1ccccc1)NC(=O)[C@H](Cc1c[nH]cn1)NC(=O)[C@H](C)NC(=O)[C@H](CC(C)C)NC(=O)[C@H](CCCNC(=N)N)NC(=O)[C@H](CCC(N)=O)NC(=O)[C@@H](NC(=O)[C@H](C)NC(=O)[C@@H]1CSSC[C@H](NC(=O)[C@@H](N)CCCCNC(=O)CC[C@H](NC(=O)CCCCCCCCCCCCCCCCCCC(=O)O)C(=O)O)C(=O)N[C@@H](CC(N)=O)C(=O)N[C@@H]([C@@H](C)O)C(=O)N[C@@H](C)C(=O)N[C@@H]([C@@H](C)O)C(=O)N1)[C@@H](C)O)C(=O)N1CCC[C@H]1C(=O)N[C@@H](CO)C(=O)N[C@@H](CO)C(=O)N[C@H](C(=O)N[C@@H](CC(N)=O)C(=O)N[C@H](C(=O)NCC(=O)N[C@@H](Cc1c[nH]cn1)C(=O)N[C@@H](CC(N)=O)C(=O)N[C@H](C(=O)N[C@@H](Cc1ccc(O)cc1)C(N)=O)[C@@H](C)O)C(C)C)[C@@H](C)O, also called compound 81)
–	0.027 nM	0.542 nM	K([γGlu-C20 diacid])CNTATCATQRLAHFLRHSSPNFGAIPSSTNVGSHTY-NH2 (disulfide 2-7; N-terminus assumed; SMILES CC[C@H](C)[C@H](NC(=O)[C@H](C)NC(=O)CNC(=O)[C@H](Cc1ccccc1)NC(=O)[C@H](CC(N)=O)NC(=O)[C@@H]1CCCN1C(=O)[C@H](CO)NC(=O)[C@H](CO)NC(=O)[C@H](Cc1c[nH]cn1)NC(=O)[C@H](CCCNC(=N)N)NC(=O)[C@H](CC(C)C)NC(=O)[C@H](Cc1ccccc1)NC(=O)[C@H](Cc1c[nH]cn1)NC(=O)[C@H](C)NC(=O)[C@H](CC(C)C)NC(=O)[C@H](CCCNC(=N)N)NC(=O)[C@H](CCC(N)=O)NC(=O)[C@@H](NC(=O)[C@H](C)NC(=O)[C@@H]1CSSC[C@H](NC(=O)[C@@H](N)CCCCNC(=O)CC[C@H](NC(=O)CCCCCCCCCCCCCCCCCCC(=O)O)C(=O)O)C(=O)N[C@@H](CC(N)=O)C(=O)N[C@@H]([C@@H](C)O)C(=O)N[C@@H](C)C(=O)N[C@@H]([C@@H](C)O)C(=O)N1)[C@@H](C)O)C(=O)N1CCC[C@H]1C(=O)N[C@@H](CO)C(=O)N[C@@H](CO)C(=O)N[C@H](C(=O)N[C@@H](CC(N)=O)C(=O)N[C@H](C(=O)NCC(=O)N[C@@H](CO)C(=O)N[C@@H](Cc1c[nH]cn1)C(=O)N[C@H](C(=O)N[C@@H](Cc1ccc(O)cc1)C(N)=O)[C@@H](C)O)C(C)C)[C@@H](C)O, also called compound 66)
